Values of other authors as cited in patent US7547701B2, “Haloalkyl containing compounds as cysteine protease inhibitors” (Virobay, Inc., priority 2003, dated 2009).

Conditions: in clinical trials

OKT3: murine monoclonal antibody directed towards CD-3 domain of activated T-cells
patients administered OKT3 that produce antibodies versus the therapy: 20-40%
